Source: doi:10.1101/2022.07.11.499617, “Direct attenuation of Arabidopsis ERECTA signaling by a pair of U-box E3 ligases” (bioRxiv, 2022)
Read-outs that look alike come from different tables or passages of the source.

T1: GST-PUB31 (Arabidopsis thaliana, UniProt Q9FHN9 1-444)
T1 chain: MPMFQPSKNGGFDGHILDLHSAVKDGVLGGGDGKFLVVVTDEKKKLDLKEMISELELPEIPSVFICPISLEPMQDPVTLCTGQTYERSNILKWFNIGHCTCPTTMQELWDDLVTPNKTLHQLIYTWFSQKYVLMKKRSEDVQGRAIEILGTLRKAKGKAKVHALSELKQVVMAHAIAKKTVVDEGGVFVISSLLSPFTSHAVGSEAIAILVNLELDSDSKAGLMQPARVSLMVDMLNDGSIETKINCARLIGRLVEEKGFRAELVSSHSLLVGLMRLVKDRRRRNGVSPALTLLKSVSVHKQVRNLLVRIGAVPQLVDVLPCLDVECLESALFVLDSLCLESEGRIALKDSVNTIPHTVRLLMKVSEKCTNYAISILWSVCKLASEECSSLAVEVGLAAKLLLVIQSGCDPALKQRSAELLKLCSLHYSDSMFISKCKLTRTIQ

T2: GST-PUB30 (Arabidopsis thaliana, UniProt Q058P4 1-448)
T2 chain: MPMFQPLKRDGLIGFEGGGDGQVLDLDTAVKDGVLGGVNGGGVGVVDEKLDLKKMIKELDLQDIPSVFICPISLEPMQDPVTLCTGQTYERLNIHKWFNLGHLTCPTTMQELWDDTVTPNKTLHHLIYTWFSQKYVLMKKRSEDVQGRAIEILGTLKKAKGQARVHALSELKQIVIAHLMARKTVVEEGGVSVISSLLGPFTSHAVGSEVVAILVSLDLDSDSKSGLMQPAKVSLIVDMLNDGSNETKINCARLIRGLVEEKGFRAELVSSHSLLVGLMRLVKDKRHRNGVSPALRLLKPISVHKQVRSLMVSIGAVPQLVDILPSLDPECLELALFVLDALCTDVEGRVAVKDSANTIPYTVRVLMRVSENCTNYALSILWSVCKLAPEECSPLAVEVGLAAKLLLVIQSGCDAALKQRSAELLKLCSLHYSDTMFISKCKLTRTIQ

T3: GST-PUB30 (Arabidopsis thaliana, UniProt Q058P4 1-448)
T3 construct: Plant U-box ubiquitin E3 ligase PUB30, Arabidopsis, full length
T3 sequence (looked up): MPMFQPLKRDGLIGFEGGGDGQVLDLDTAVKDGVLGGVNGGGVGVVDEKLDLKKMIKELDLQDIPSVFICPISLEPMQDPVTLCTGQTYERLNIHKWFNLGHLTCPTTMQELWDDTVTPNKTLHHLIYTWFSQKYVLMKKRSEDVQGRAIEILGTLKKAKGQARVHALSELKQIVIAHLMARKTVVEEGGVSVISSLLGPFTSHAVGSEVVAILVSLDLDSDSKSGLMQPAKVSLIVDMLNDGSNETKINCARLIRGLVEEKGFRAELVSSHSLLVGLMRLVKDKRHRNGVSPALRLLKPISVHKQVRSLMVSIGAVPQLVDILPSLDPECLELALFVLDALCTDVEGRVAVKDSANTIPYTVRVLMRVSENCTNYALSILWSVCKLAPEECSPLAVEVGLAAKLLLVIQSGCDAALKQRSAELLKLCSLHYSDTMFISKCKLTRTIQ

T4: GST-PUB31 (Arabidopsis thaliana, UniProt Q9FHN9 1-444)
T4 construct: Plant U-box ubiquitin E3 ligase PUB31, Arabidopsis, full length
T4 sequence (looked up): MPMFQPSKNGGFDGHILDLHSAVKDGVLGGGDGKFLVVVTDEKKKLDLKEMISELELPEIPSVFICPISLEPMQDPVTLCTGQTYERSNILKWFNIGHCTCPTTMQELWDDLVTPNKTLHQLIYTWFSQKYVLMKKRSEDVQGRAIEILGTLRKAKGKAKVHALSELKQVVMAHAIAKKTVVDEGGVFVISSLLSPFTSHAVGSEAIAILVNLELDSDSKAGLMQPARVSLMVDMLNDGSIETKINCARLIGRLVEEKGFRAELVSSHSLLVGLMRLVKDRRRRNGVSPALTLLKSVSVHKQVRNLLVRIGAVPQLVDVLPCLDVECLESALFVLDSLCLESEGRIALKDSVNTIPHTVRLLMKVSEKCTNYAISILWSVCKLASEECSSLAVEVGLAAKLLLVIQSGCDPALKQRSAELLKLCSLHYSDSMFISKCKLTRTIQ


What was measured:
GST-PUB31 [1] = molecular target: T1, GST-PUB31; experiment: BLI
GST-PUB30 [2] = molecular target: T2, GST-PUB30; experiment: BLI
GST-PUB31 [3] = molecular target: T1, GST-PUB31; experiment: BLI
GST-PUB30 [4] = molecular target: T2, GST-PUB30; experiment: BLI
GST-PUB30 [5] = molecular target: T3, GST-PUB30; experiment: BLI; Octet Red96; GST-PUB30 or GST-PUB31 loaded on anti-GST probes (2000 nM for ERECTA_CD, 1000 nM for BAK1_CD); ERECTA_CD or BAK1_CD as analyte at seven concentrations; 30 °C; 1x PBS with 0.02 % Tween 20; 1:1 model, steady-state analysis; conditions: both partners purified
GST-PUB31 [6] = molecular target: T4, GST-PUB31; experiment: as above; conditions: both partners purified

Kd (GST-PUB31 [1])	Kd (GST-PUB30 [2])	Kd (GST-PUB31 [3])	Kd (GST-PUB30 [4])	fold stronger interaction than ERECTA_CD (GST-PUB30 [5])	fold stronger interaction than ERECTA_CD (GST-PUB31 [6])	Binder
11 µM	15 µM	–	–	–	–	MBP-ERECTA_CD (domain or fragment) CRPHNPPPFLDGSLDKPVTYSTPKLVILHMNMALHVYEDIMRMTENLSEKYIIGHGASSTVYKCVLKNCKPVAIKRLYSHNPQSMKQFETELEMLSSIKHRNLVSLQAYSLSHLGSLLFYDYLENGSLWDLLHGPTKKKTLDWDTRLKIAYGAAQGLAYLHHDCSPRIIHRDVKSSNILLDKDLEARLTDFGIAKSLCVSKSHTSTYVMGTIGYIDPEYARTSRLTEKSDVYSYGIVLLELLTRRKAVDDESNLHHLIMSKTGNNEVMEMADPDITSTCKDLGVVKKVFQLALLCTKRQPNDRPTMHQVTRVLGSFMLSEQPPAATDTSATLAGSCYVDEYANLKTPHSVNCSSMSASDAQLFLRFGQVISQNSE
–	–	2 µM	2.4 µM	~10 fold	~10 fold	MBP-BAK1_CD (domain or fragment, Arabidopsis thaliana, UniProt Q94F62 247-615, looked up, BRI1-ASSOCIATED RECEPTOR KINASE1 (BAK1/SERK3), Arabidopsis; cytoplasmic domain) AWWRRKKPQDHFFDVPAEEDPEVHLGQLKRFSLRELQVASDNFSNKNILGRGGFGKVYKGRLADGTLVAVKRLKEERTQGGELQFQTEVEMISMAVHRNLLRLRGFCMTPTERLLVYPYMANGSVASCLRERPESQPPLDWPKRQRIALGSARGLAYLHDHCDPKIIHRDVKAANILLDEEFEAVVGDFGLAKLMDYKDTHVTTAVRGTIGHIAPEYLSTGKSSEKTDVFGYGVMLLELITGQRAFDLARLANDDDVMLLDWVKGLLKEKKLEALVDVDLQGNYKDEEVEQLIQVALLCTQSSPMERPKMSEVVRMLEGDGLAERWEEWQKEEMFRQDFNYPTHHPAVSGWIIGDSTSQIENEYPSGPR
